Test results from PMC5719400, “Engineering an aldehyde dehydrogenase toward its substrates, 3-hydroxypropanal and NAD^+, for enhancing the production of 3-hydroxypropionic acid” (Scientific Reports, 2017).

Experiments:
Assay in all cases: purified protein
Format in all cases: biochemical, Azospirillum brasilense
purified protein [1] = substrate: NC(=O)c1ccc[n+]([C@@H]2O[C@H](COP(=O)(O)OP(=O)(O)OC[C@H]3O[C@@H](n4cnc5c(N)ncnc54)[C@H](O)[C@@H]3O)[C@@H](O)[C@H]2O)c1; settings: 3 mM 3-HPA, 100 mM phosphate pH 8, 25 °C, varied: cofactor
Excerpt: (§1) (α-ketoglutaric semialdehyde dehydrogenase)

purified protein [2] = substrate: O=CCCO; settings: 2 mM NAD+, 100 mM phosphate pH 8, 25 °C
Excerpt: as §1

purified protein [3] = substrate: NC(=O)c1ccc[n+]([C@@H]2O[C@H](COP(=O)(O)OP(=O)(O)OC[C@H]3O[C@@H](n4cnc5c(N)ncnc54)[C@H](OP(=O)(O)O)[C@@H]3O)[C@@H](O)[C@H]2O)c1; settings: 3 mM 3-HPA, 100 mM phosphate pH 8, 25 °C, varied: cofactor
Excerpt: as §1

B1: KGSADH (α-ketoglutaric semialdehyde dehydrogenase) (Azospirillum brasilense; A337R/A442P/P444T/R334Q) (protein)
chain: ANVTYTDTQLLIDGEWVDAASGKTIDVVNPATGKPIGRVAHAGIADLDRALAAAQSGFEAWRKVPAHERAATMRKAAALVRERADAIAQLMTQEQGKPLTEARVEVLSAADIIEWFADEGRRVYGRIVPPRNLGAQQTVVKEPVGPVAAFTPWNFPVNQVVRKLSAALATGCSFLVKAPEETPASPAALLRAFVDAGVPAGVIGLVYGDPAEISSYLIPHPVIRKVTFTGSTPVGKQLASLAGLHMKRATMELGGHAPVIVAEDADVALAVKAAGGAKFRNAGQVCISPTRFLVHNSIRDEFTRALVKHAEGLKVGNGLEEGTTLGALANPRQLTRMASVIDNARKVGASIETGGERIGSEGNFFAPTVIANVPLDADVFNNEPFGPVAAIRGFDKLEEAIAEANRLPFGLAGYAFTRSFANVHLLTQRLEVGMLWINQPPTTWPEMPFGGVKDSGYGSEGGPEALEPYLVTKSVTVMAV
notes: N-terminal His6-tag (pQE80L), expressed in E. coli DH10β, Ni-NTA purified; catalytic residues E253 and C287
In the case of B1, the Km (purified protein [1]; variant 106-QR) is reported as 0.025(±0.0045) mM, the kcat (purified protein [1]; variant 106-QR) is reported as 4.8 ± 0.93 s⁻¹ and the kcat/Km (purified protein [1]; variant 106-QR) is reported as 192000 ± 72500 M⁻¹ s⁻¹. The Km (purified protein [2]; variant 106-QR) was 0.29(±0.062) mM, the kcat (purified protein [2]; variant 106-QR) was 5 ± 1.2 s⁻¹ and the kcat/Km (purified protein [2]; variant 106-QR) was 17000 ± 7800 M⁻¹ s⁻¹.

B2: KGSADH (α-ketoglutaric semialdehyde dehydrogenase) (Azospirillum brasilense; A337R/R334Q) (protein)
chain: ANVTYTDTQLLIDGEWVDAASGKTIDVVNPATGKPIGRVAHAGIADLDRALAAAQSGFEAWRKVPAHERAATMRKAAALVRERADAIAQLMTQEQGKPLTEARVEVLSAADIIEWFADEGRRVYGRIVPPRNLGAQQTVVKEPVGPVAAFTPWNFPVNQVVRKLSAALATGCSFLVKAPEETPASPAALLRAFVDAGVPAGVIGLVYGDPAEISSYLIPHPVIRKVTFTGSTPVGKQLASLAGLHMKRATMELGGHAPVIVAEDADVALAVKAAGGAKFRNAGQVCISPTRFLVHNSIRDEFTRALVKHAEGLKVGNGLEEGTTLGALANPRQLTRMASVIDNARKVGASIETGGERIGSEGNFFAPTVIANVPLDADVFNNEPFGPVAAIRGFDKLEEAIAEANRLPFGLAGYAFTRSFANVHLLTQRLEVGMLWINQPATPWPEMPFGGVKDSGYGSEGGPEALEPYLVTKSVTVMAV
notes: as for B1
For B2, the Km (purified protein [1]; variant WT-QR) was 0.044(±0.0033) mM, the kcat (purified protein [1]; variant WT-QR) was 7.9 ± 0.75 s⁻¹ and the kcat/Km (purified protein [1]; variant WT-QR) was 180000 ± 30500 M⁻¹ s⁻¹. The Km (purified protein [2]; variant WT-QR) was 0.55(±0.13) mM, the kcat (purified protein [2]; variant WT-QR) was 6.8 ± 0.35 s⁻¹ and the kcat/Km (purified protein [2]; variant WT-QR) was 12000 ± 3600 M⁻¹ s⁻¹. For the same protein, the Km (purified protein [3]; variant WT-QR) was 0.81(±0.15) mM, the kcat (purified protein [3]; variant WT-QR) was 4.4 ± 1.4 s⁻¹ and the kcat/Km (purified protein [3]; variant WT-QR) was 5400 ± 2700 M⁻¹ s⁻¹.

B3: KGSADH (α-ketoglutaric semialdehyde dehydrogenase) (Azospirillum brasilense) (protein)
chain: ANVTYTDTQLLIDGEWVDAASGKTIDVVNPATGKPIGRVAHAGIADLDRALAAAQSGFEAWRKVPAHERAATMRKAAALVRERADAIAQLMTQEQGKPLTEARVEVLSAADIIEWFADEGRRVYGRIVPPRNLGAQQTVVKEPVGPVAAFTPWNFPVNQVVRKLSAALATGCSFLVKAPEETPASPAALLRAFVDAGVPAGVIGLVYGDPAEISSYLIPHPVIRKVTFTGSTPVGKQLASLAGLHMKRATMELGGHAPVIVAEDADVALAVKAAGGAKFRNAGQVCISPTRFLVHNSIRDEFTRALVKHAEGLKVGNGLEEGTTLGALANPRRLTAMASVIDNARKVGASIETGGERIGSEGNFFAPTVIANVPLDADVFNNEPFGPVAAIRGFDKLEEAIAEANRLPFGLAGYAFTRSFANVHLLTQRLEVGMLWINQPATPWPEMPFGGVKDSGYGSEGGPEALEPYLVTKSVTVMAV
notes: as for B1
B3 was tested, and the Km (purified protein [1]) was 0.21(±0.018) mM, the kcat (purified protein [1]) was 12 ± 1.7 s⁻¹ and the kcat/Km (purified protein [1]) was 57000 ± 13000 M⁻¹ s⁻¹. For the same protein, the Km (purified protein [2]) was 1.6(±0.14) mM, the kcat (purified protein [2]) was 15 ± 2.1 s⁻¹ and the kcat/Km (purified protein [2]) was 9000 ± 2100 M⁻¹ s⁻¹. For the same protein, the Km (purified protein [3]) was 2.3(±0.033) mM, the kcat (purified protein [3]) was 8.6 ± 0.84 s⁻¹ and the kcat/Km (purified protein [3]) was 3700 ± 420 M⁻¹ s⁻¹.

B4: KGSADH (α-ketoglutaric semialdehyde dehydrogenase) (Azospirillum brasilense; A337R/A442P/K273A/P444A/R334Q/T443E) (protein)
chain: ANVTYTDTQLLIDGEWVDAASGKTIDVVNPATGKPIGRVAHAGIADLDRALAAAQSGFEAWRKVPAHERAATMRKAAALVRERADAIAQLMTQEQGKPLTEARVEVLSAADIIEWFADEGRRVYGRIVPPRNLGAQQTVVKEPVGPVAAFTPWNFPVNQVVRKLSAALATGCSFLVKAPEETPASPAALLRAFVDAGVPAGVIGLVYGDPAEISSYLIPHPVIRKVTFTGSTPVGKQLASLAGLHMKRATMELGGHAPVIVAEDADVALAVAAAGGAKFRNAGQVCISPTRFLVHNSIRDEFTRALVKHAEGLKVGNGLEEGTTLGALANPRQLTRMASVIDNARKVGASIETGGERIGSEGNFFAPTVIANVPLDADVFNNEPFGPVAAIRGFDKLEEAIAEANRLPFGLAGYAFTRSFANVHLLTQRLEVGMLWINQPPEAWPEMPFGGVKDSGYGSEGGPEALEPYLVTKSVTVMAV
notes: as for B1
B4 was tested, and the Km (purified protein [1]; variant 108-QR) was 0.037(±0.0024) mM, the kcat (purified protein [1]; variant 108-QR) was 6.1 ± 0.64 s⁻¹ and the kcat/Km (purified protein [1]; variant 108-QR) was 165000 ± 28000 M⁻¹ s⁻¹. For the same protein, the Km (purified protein [2]; variant 108-QR) was 0.17(±0.032) mM, the kcat (purified protein [2]; variant 108-QR) was 6 ± 1.3 s⁻¹ and the kcat/Km (purified protein [2]; variant 108-QR) was 35000 ± 14000 M⁻¹ s⁻¹. For the same protein, the Km (purified protein [3]; variant 108-QR) was 0.66(±0.065) mM, the kcat (purified protein [3]; variant 108-QR) was 4.5 ± 1.1 s⁻¹ and the kcat/Km (purified protein [3]; variant 108-QR) was 6900 ± 2300 M⁻¹ s⁻¹.

B5: KGSADH (α-ketoglutaric semialdehyde dehydrogenase) (Azospirillum brasilense; A110S/A337R/A442P/K273A/P444T/R334Q) (protein)
chain: ANVTYTDTQLLIDGEWVDAASGKTIDVVNPATGKPIGRVAHAGIADLDRALAAAQSGFEAWRKVPAHERAATMRKAAALVRERADAIAQLMTQEQGKPLTEARVEVLSSADIIEWFADEGRRVYGRIVPPRNLGAQQTVVKEPVGPVAAFTPWNFPVNQVVRKLSAALATGCSFLVKAPEETPASPAALLRAFVDAGVPAGVIGLVYGDPAEISSYLIPHPVIRKVTFTGSTPVGKQLASLAGLHMKRATMELGGHAPVIVAEDADVALAVAAAGGAKFRNAGQVCISPTRFLVHNSIRDEFTRALVKHAEGLKVGNGLEEGTTLGALANPRQLTRMASVIDNARKVGASIETGGERIGSEGNFFAPTVIANVPLDADVFNNEPFGPVAAIRGFDKLEEAIAEANRLPFGLAGYAFTRSFANVHLLTQRLEVGMLWINQPPTTWPEMPFGGVKDSGYGSEGGPEALEPYLVTKSVTVMAV
notes: as for B1
B5 was tested, and the Km (purified protein [1]; variant 104-QR) was 0.033(±0.0089) mM, the kcat (purified protein [1]; variant 104-QR) was 5.9 ± 0.61 s⁻¹ and the kcat/Km (purified protein [1]; variant 104-QR) was 179000 ± 66700 M⁻¹ s⁻¹. The Km (purified protein [2]; variant 104-QR) was 0.43(±0.094) mM, the kcat (purified protein [2]; variant 104-QR) was 6.7 ± 0.64 s⁻¹ and the kcat/Km (purified protein [2]; variant 104-QR) was 16000 ± 4900 M⁻¹ s⁻¹.
